Changes are numbered by the printed parent chain. Numbers in names are those of the source.

This is an account of results in patent US20110268733A1 (Daiichi Sankyo, published 2011).

Assay [1] deals with T1, human Siglec-15-Fc (human).
T1 construct: Expressed in 293-F cells, purified on Protein A; also called soluble human Siglec-15-Fc; human Siglec-15-Fc protein
The assay is described as follows: ELISA, human Siglec-15-Fc immobilized at 1 µg/ml, antibody 1 to 0.004 µg/ml, fluorescence read-out. Background: In an ELISA, binding on a coated surface is turned into a signal by an enzyme label.

For assay [2], the target named is T1, human Siglec-15-Fc. The assay is described as follows: ELISA, human Siglec-15-Fc immobilized at 5 µg/ml, antibody 1.28 to 20,000 ng/ml. The method, then:
The property of the rat anti-mouse Siglec-15 monoclonal antibody binding to human Siglec-15 protein was evaluated by an ELISA method. The human Siglec-15-Fc protein (subjected to replacement with A-PBS) produced in b) of Example 12 was diluted to 5 μg/ml with 0.1 M sodium carbonate buffer (pH 9.5), and the resulting solution was added to a 96-well plate (manufactured by Nalge Nunc International, Inc., Cat. No. 430341) at 100 μl/well. After the plate had been left at room temperature for 1 hour, the solution was removed and a washing buffer (phosphate-buffered saline containing 0.05% Tween 20) was added at 300 μl/well and then removed. After this washing procedure had been performed one more time, phosphate-buffered saline containing 25% BlockAce (manufactured by Dainippon Sumitomo Pharma Co., Ltd.) was added at 200 μl/well, and the plate was left at room temperature for 1 hour, whereby blocking was performed. The liquid was removed, and the plate was washed twice with 300 μl/well of the washing buffer. […] After developing the color, an absorbance at 492 nm was measured using a microplate reader (manufactured by Nihon Molecular Devices Corporation).

Assay [3] has as its target T2, human Siglec-15 V-set domain (human, UniProt Q6ZMC9 39-165).
T2 construct: The His tag was cleaved with thrombin before use; also called human V-set domain
T2 sequence: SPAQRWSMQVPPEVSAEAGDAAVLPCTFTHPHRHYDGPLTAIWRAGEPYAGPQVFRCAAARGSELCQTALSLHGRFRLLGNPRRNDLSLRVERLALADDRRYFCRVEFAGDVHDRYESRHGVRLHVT
The assay is described as follows: competitive ELISA: V-set domain (0 to 20 µg/ml) pre-mixed with #32A1 (2 µg/ml), then added to captured human Siglec-15-Fc. As for the experimental part: In a 96-well maxi-sorp plate (manufactured by Nunc, Inc., model number: 442404), 100 μl of a goat anti-human Fc antibody (Jackson ImmunoResearch, Inc., model number: 109-005-098) (1.25 μg/ml) was added to each well and immobilized overnight at 4° C. After the 96-well maxi-sorp plate was washed twice with PBS, 100 μl of the soluble human Siglec-15-Fc (1 μg/ml) was added to each well and immobilized at room temperature for 1 hour. Thereafter, 300 μl of a 5% skim milk/PBS solution was added to each well, and blocking of the wells was performed at room temperature for 3 hours. In the meantime, 2 μg/ml of the rat anti-mouse Siglec-15 monoclonal antibody #32A1 was mixed with an equivalent amount of 0, 0.032, 0.16, 0.8, 4, or 20 μg/ml of the human Siglec-15 V-set domain, and a reaction was allowed to proceed at room temperature for 1.5 hours. After the 96-well maxi-sorp plate had been washed twice with PBS, 100 μl of the mixed solution of the rat anti-mouse Siglec-15 monoclonal antibody #32A1 and the human Siglec-15 V-set domain was added thereto, and a reaction was allowed to proceed at room temperature for 1 hour. […] Then, 100 μl of a reaction stopping solution was added thereto, and an absorbance at 405 nm was measured.

T1 sequence (chain, as listed by the source limits assumed): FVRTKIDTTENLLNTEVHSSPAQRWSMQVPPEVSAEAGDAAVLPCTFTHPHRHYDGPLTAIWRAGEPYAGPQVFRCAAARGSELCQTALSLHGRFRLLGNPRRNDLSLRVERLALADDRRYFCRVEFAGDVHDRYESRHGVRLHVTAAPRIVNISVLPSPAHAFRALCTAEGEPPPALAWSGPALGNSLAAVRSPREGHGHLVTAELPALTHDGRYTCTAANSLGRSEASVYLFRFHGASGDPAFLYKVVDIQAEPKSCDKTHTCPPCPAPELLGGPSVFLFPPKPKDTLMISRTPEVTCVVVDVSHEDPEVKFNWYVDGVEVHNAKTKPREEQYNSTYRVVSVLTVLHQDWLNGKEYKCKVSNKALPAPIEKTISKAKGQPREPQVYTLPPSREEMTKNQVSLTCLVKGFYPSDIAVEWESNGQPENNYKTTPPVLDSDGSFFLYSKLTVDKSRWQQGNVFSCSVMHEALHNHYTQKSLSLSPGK

B1: h#32A1-T1 (antibody, human IgG1, kappa, V domains shown)
VH: EVQLVESGGGLVQPGGSLRLSCAASGFNFNDYFMNWVRQAPGKGLEWVAQIRNKIYTYATFYAESLEGRFTISRDNAKNSLYLQMNSLRAEDTAVYYCARSLTGGDYFDYWGQGTLVTVSS
VL: DIVMTQSPDSLAVSLGERATINCRASQSVTISGYSFIHWYQQKPGQPPKLLIYRASNLASGVPARFSGSGSGTDFTLTISSLQAEDVAVYYCQQSRKSPWTFGGGTKVEIKR
notes: Human IgG1 / kappa constant regions; also called humanized antibody of rat anti-mouse Siglec-15 #32A1 T1; h#32A1-T1H / h#32A1-T1L
B1: the binding result in assay [1] is “binds”.

B2: h#32A1-T6 (antibody, human IgG1, kappa, V domains shown)
VH: B1 VH with L4V, A24T, G42E, F70V, A77S, N79S, S80T, L81V, N86S, A99T
VL: B1 VL with M4L, N22S, K49R, V62I, V89T, Y91F, G103A
notes: Human IgG1 / kappa constant regions; also called humanized antibody of rat anti-mouse Siglec-15 #32A1 T6; h#32A1-T6H / h#32A1-T6L
In the case of B2, the binding result in assay [1] is “binds”.

B3: h#32A1-T5 (antibody, human IgG1, kappa, V domains shown)
VH: B1 VH with L4V, A24T, A77S, N79S, S80T, L81V, A99T
VL: B1 VL with M4L, V62I, V89T, G104Q
notes: Human IgG1 / kappa constant regions; also called humanized antibody of rat anti-mouse Siglec-15 #32A1 T5; h#32A1-T5H / h#32A1-T5L
B3: the binding result in assay [1] is “binds”.

B4: h#32A1-T3 (antibody, human IgG1, kappa, V domains shown)
VH: EVQIVESGGGLVQPGGSLRLSCATSGFNFNDYFMNWVRQAPEKGLEWVAQIRNKIYTYATFYAESLEGRVTISRDDSESSVYLQMSSLRAEDTAVYYCTRSLTGGDYFDYWGQGTLVTVSS
VL: B1 VL with M4L, N22S, P47Q, K49R, V62I, V89T, Y91F, G103A
notes: Human IgG1 / kappa constant regions; also called humanized antibody of rat anti-mouse Siglec-15 #32A1 T3; h#32A1-T3H / h#32A1-T3L
Turning to B4, in assay [1], the binding result is reported as “binds”.

B5: h#32A1-T2 (antibody, human IgG1, kappa, V domains shown)
VH: B1 VH with G42E, F70V, N86S
VL: B1 VL with N22S, K49R, Y91F, G103A
notes: Human IgG1 / kappa constant regions; also called humanized antibody of rat anti-mouse Siglec-15 #32A1 T2; h#32A1-T2H / h#32A1-T2L
Consider B5, for which the binding result in assay [1] is “binds”.

B6: rat anti-mouse Siglec-15 monoclonal antibody #32A1 (antibody, rat IgG2a, V domains shown)
VH: B4 VH with V5L, S7T, Q13K, M85V, V95I, T115V, L116M, S121L
VL: DIVLTQSPALAVSLGQRATISCRASQSVTISGYSFIHWYQQKPGQQPRLLIYRASNLASGIPARFSGSGSGTDFTLTINPVQADDIATYFCQQSRKSPWTFAGGTKLELRRA
notes: Whole rat IgG purified from nude mouse ascites; Cloning primers were designed from the rat IgG2a heavy chain and kappa light chain constant regions; also called #32A1 antibody; rat #32A1 antibody
As for B6, the binding result in assay [2] and in assay [3] was “binds” in each case.
